These are literature values, as cited in publication doi:10.1101/2021.06.28.450170.

One may read the pKa as the pH at which an ionisable group is half protonated.

One series has as its target Cys797 (UniProt position 797, LMPFGCLLDYV). Briefly: chemical modification.
The target in another series is Cys481 (UniProt position 481, YMANGCLLNYL).
The target in another series is Cys442 (UniProt position 442, FMEHGCLSDYL).

In the case of “Epidermal growth factor receptor (EGFR) kinase (Homo sapiens)”, the pKa in the series with Cys797 is listed as 5.5. As to “Bruton's tyrosine kinase (BTK) (Homo sapiens)”, the pKa in the series with Cys481 was 7.7. Regarding “Interleukin-2-inducible T-cell kinase (ITK) (Homo sapiens)”, the pKa with Cys442 is 8.5.
